Measured values taken from publication PMC4495429 (Scientific Reports, 2015).
Residue numbers refer to the chain shown, from its start. Numbers in names are those of the source.

Columns and labels:
[1] = target: T1, homoserine dehydrogenase (HseDH) (Pyrococcus horikoshii, UniProt O58802, R40A); assay: FT-ICR MS of cofactor released from purified protein; type: binding
T1 construct: gene PH1075; His-tagged HseDH
T1 sequence (O58802 1-319 R40A): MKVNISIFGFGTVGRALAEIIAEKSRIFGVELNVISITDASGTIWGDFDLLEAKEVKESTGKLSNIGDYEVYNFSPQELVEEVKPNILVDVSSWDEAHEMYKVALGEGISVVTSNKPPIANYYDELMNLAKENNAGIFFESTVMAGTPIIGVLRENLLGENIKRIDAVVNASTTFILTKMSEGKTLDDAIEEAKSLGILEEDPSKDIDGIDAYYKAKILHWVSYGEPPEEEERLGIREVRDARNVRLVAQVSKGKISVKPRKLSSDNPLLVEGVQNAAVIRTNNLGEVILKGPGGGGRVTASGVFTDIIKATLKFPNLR

[2] = target: T2, homoserine dehydrogenase (HseDH) (Pyrococcus horikoshii, UniProt O58802, K57A); assay: crystal structure at […] Å (with Hse); FT-ICR MS; type: binding
T2 construct: gene PH1075; ordered residues 1-319 in each subunit (homodimer)
T2 sequence (O58802 1-319 K57A): T1 sequence (O58802 1-319 R40A) with A40R, K57A

[3] = target: T3, homoserine dehydrogenase (HseDH) (Pyrococcus horikoshii, UniProt O58802); assay: crystal structure at […] Å; FT-ICR MS of released cofactor; type: binding; set-up: gene PH1075; ordered residues 1-319 in each subunit (homodimer)
T3 sequence (O58802 1-319): T1 sequence (O58802 1-319 R40A) with A40R

[4] = target: T2, homoserine dehydrogenase (HseDH); assay: crystal structure at […] Å (with NADPH); type: binding
[5] = target: T3, homoserine dehydrogenase (HseDH); assay: inhibition of NAD-dependent Hse oxidation, Morrison tight-binding fit; type: biochemical; set-up: gene PH1075; His-tagged HseDH
purified protein [6] = substrate: NC(=O)C1=CN([C@@H]2O[C@H](COP(=O)(O)OP(=O)(O)OC[C@H]3O[C@@H](n4cnc5c(N)ncnc54)[C@H](O)[C@@H]3O)[C@@H](O)[C@H]2O)C=CC1; assay: purified protein; settings: varied: cofactor
purified protein [7] = substrate: N[C@@H](CCO)C(=O)O; assay: purified protein; settings: NAD
purified protein [8] = substrate: NC(=O)c1ccc[n+]([C@@H]2O[C@H](COP(=O)([O-])OP(=O)(O)OC[C@H]3O[C@@H](n4cnc5c(N)ncnc54)[C@H](O)[C@@H]3O)[C@@H](O)[C@H]2O)c1; assay: purified protein; type: biochemical, Pyrococcus horikoshii; settings: varied: cofactor
[9] = target: the molecule itself; assay: SEC; gel filtration on Superose 6 10/300 GL, 10 mM Tris-HCl (pH 7.5) with 0.2 M NaCl; native mass against Bio-Rad gel filtration standards
purified protein [10] = substrate: NC(=O)c1ccc[n+]([C@@H]2O[C@H](COP(=O)(O)OP(=O)(O)OC[C@H]3O[C@@H](n4cnc5c(N)ncnc54)[C@H](OP(=O)(O)O)[C@@H]3O)[C@@H](O)[C@H]2O)c1; assay: purified protein; type: biochemical, Pyrococcus horikoshii; settings: varied: cofactor
[11] = target: the molecule itself; assay: crystal structure; sitting-drop vapor diffusion at 20 °C; wild type: 0.1 M potassium phosphate pH 6.2, 20% MPD; K57A with 1 mM Hse: 16% PEG monomethyl ether 2000, 0.1 M citrate pH 6.5; one homodimer in the asymmetric unit

NC(=O)C1=CN([C@@H]2O[C@H](COP(=O)(O)OP(=O)(O)OC[C@H]3O[C@@H](n4cnc5c(N)ncnc54)[C@H](OP(=O)(O)O)[C@@H]3O)[C@@H](O)[C@H]2O)C=CC1 [NADPH]
FT-ICR MS of cofactor released from purified protein [1]: indicating that NADPH tightly bound to R40A, as in the case of the wild type enzyme | crystal structure at 2.43 Å (with Hse); FT-ICR MS [2]: we observed a clear density corresponding to the cofactor bound within the nucleotide-binding site | crystal structure at 2.30 Å; FT-ICR MS of released cofactor [3]: These results demonstrate that the molecule bound to P. horikoshii HseDH is NADPH.

N[C@@H](CCO)C(=O)O [Hse]
crystal structure at 2.43 Å (with NADPH) [4]: extra density within the active site cavity, and after construction and refinement of the peptide chain, a Hse molecule could be modeled

NC(=O)c1ccc[n+]([C@@H]2O[C@H](COP(=O)(O)OP(=O)(O)OC[C@H]3O[C@@H](n4cnc5c(N)ncnc54)[C@H](OP(=O)(O)O)[C@@H]3O)[C@@H](O)[C@H]2O)c1 [NADP]
Ki [5]: 5.2 ± 0.1 nM

B1: Pyrococcus horikoshii homoserine dehydrogenase (HseDH), His-tagged wild type (enzyme, UniProt O58802 1-319, looked up)
chain: T1 sequence (O58802 1-319 R40A) with A40R
notes: Homoserine dehydrogenase, Pyrococcus horikoshii, open reading frame PH1075; amplified from the initiation codon to the termination codon; ordered residues 1-319 in each subunit of the crystal; calculated molecular weight 36,925; Expressed from pColdI (construct pCHseDH); the vector probably adds an N-terminal His6 tag with a factor Xa site (surmised); no tag removal is described; also called P. …
Km (purified protein [6]): 19 ± 10 µM | Km (purified protein [7]): 6100 ± 100 µM | Km (purified protein [8]): 320 ± 40 µM | Vmax (purified protein [8]): 114 µmol/min/mg | kcat (purified protein [8]): 70.1 ± 4.5 s⁻¹ | kcat/Km (purified protein [8]): 219000 ± 13000 M⁻¹ s⁻¹ | stoichiometry N [9]: 2

B2: Pyrococcus horikoshii homoserine dehydrogenase (HseDH) K57A mutant, His-tagged (enzyme, UniProt O58802 1-319, looked up)
chain: T1 sequence (O58802 1-319 R40A) with A40R, K57A
notes: Homoserine dehydrogenase, Pyrococcus horikoshii, open reading frame PH1075, with K57A made by site-directed mutagenesis of pCHseDH; ordered residues 1-319 in each subunit of the crystal; Made from pCHseDH (pColdI); the vector probably adds an N-terminal His6 tag (surmised); Crystallized with Hse; source: E. coli BL21 (DE3) codon plus-RIPL, purified (same method as the His-tagged wild type)
Km (purified protein [10]): 60 ± 10 µM | Vmax (purified protein [10]): 43.3 µmol/min/mg | kcat (purified protein [10]): 26.7 ± 0.2 s⁻¹ | kcat/Km (purified protein [10]): 518000 ± 29000 M⁻¹ s⁻¹ | binding result [11]: binds

B3: homoserine dehydrogenase (HseDH) (Pyrococcus horikoshii OT3; R40A) (protein)
chain: T1 sequence (O58802 1-319 R40A)
notes: His-tagged HseDH
Km (purified protein [10]): 40 ± 10 µM | Vmax (purified protein [10]): 5.5 µmol/min/mg | kcat (purified protein [10]): 3.4 ± 0.2 s⁻¹ | kcat/Km (purified protein [10]): 89100 ± 900 M⁻¹ s⁻¹
